The numbers were not newly measured in PMC2787657, which cites them from elsewhere.

Like-named read-outs stand apart in the source and are kept apart here.

In series [1] the target is CI-MPR cytoplasmic domain (Homo sapiens) (UniProt P11717).
Series [2] shares this target. This is another data set of the same source.

UniProt P11717, sequence (P11717 2328-2491): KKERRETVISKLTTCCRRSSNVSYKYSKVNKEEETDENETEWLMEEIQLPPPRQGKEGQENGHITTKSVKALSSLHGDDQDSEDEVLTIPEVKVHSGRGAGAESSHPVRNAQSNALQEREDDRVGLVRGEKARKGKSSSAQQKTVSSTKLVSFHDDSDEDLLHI

Turning to TIP47 (from UniProt O60664), the Kd is 300 nM in series [1] and 900 nM in series [2].

As a reminder, the Kd is the constant that tells how readily two partners part at equilibrium.
